Experimental data published in the supplement of paper PMC7125110.
± gives the standard error. Fewer inactive variants are shown than the library holds.

B1: glmS ribozyme (parent)
chain: AUAAAAGCGCCAGAACUACAGAAAUGUAGUUGACGAGGAGGAGGUUUAUCGAAUUUUCGGCGGAUGCCUCCAAA

Assays:
Conditions in all cases: with glucosamine-6-phosphate
glucosamine-6-phosphate [1] = variants of: B1; experiment: self-cleavage kobs at 40 uM GlcN6P; higher = faster cleavage; RNA array
Method in brief: (§1)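 E. coli RNA polymerase transcribed barcoded ribozyme variants in situ on sequenced MiSeq chips, which were tracked via a hybridised Cy3 probe at 37 °C. Tiles were imaged over ~14 h after glucosamine-6-phosphate (40 μM to 10 mM) in HEPES/KCl/Mg(OAc)2 buffer was flowed in. Normalised per-tile medians were fit to one- or two-exponential decays for kobs, and kcat and KM came from weighted Michaelis–Menten fits.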

glucosamine-6-phosphate [2] = variants of: B1; experiment: self-cleavage kobs at 640 uM GlcN6P; higher = faster cleavage; RNA array
Method in brief: as §1

glucosamine-6-phosphate [3] = variants of: B1; experiment: self-cleavage kobs at 160 uM GlcN6P; higher = faster cleavage; RNA array
Method in brief: as §1

glucosamine-6-phosphate [4] = variants of: B1; experiment: self-cleavage kobs at 2500 uM GlcN6P; higher = faster cleavage; RNA array
Method in brief: as §1

glucosamine-6-phosphate [5] = variants of: B1; experiment: self-cleavage kobs at 10000 uM GlcN6P; higher = faster cleavage; RNA array
Method in brief: as §1

Variant	self-cleavage kobs at 40 uM GlcN6P (glucosamine-6-phosphate [1])	self-cleavage kobs at 640 uM GlcN6P (glucosamine-6-phosphate [2])	self-cleavage kobs at 160 uM GlcN6P (glucosamine-6-phosphate [3])	self-cleavage kobs at 2500 uM GlcN6P (glucosamine-6-phosphate [4])	self-cleavage kobs at 10000 uM GlcN6P (glucosamine-6-phosphate [5])
C11A G32C	< 1e-05 s⁻¹				
C11U C50G U65A C68A	8.61e-05 ± 2.8e-05 s⁻¹				
G37U G60A	< 1e-05 s⁻¹	< 1e-05 s⁻¹			
A6G G13C	< 1e-05 s⁻¹	< 1e-05 s⁻¹	< 1e-05 s⁻¹	< 1e-05 s⁻¹	< 1e-05 s⁻¹
A14G G29U C34U	< 1e-05 s⁻¹				
G37U G43C G66U	< 1e-05 s⁻¹				< 1e-05 s⁻¹
A33U A53U A64U	< 1e-05 s⁻¹				< 1e-05 s⁻¹
A12C G26U	0.000614 ± 0.00014 s⁻¹	0.00546 ± 0.0013 s⁻¹		0.00321 ± 0.00099 s⁻¹	0.0113 ± 0.0032 s⁻¹
C8U A53U	< 1e-05 s⁻¹	< 1e-05 s⁻¹			< 1e-05 s⁻¹
A6C C8A A48U A52C	< 1e-05 s⁻¹				< 1e-05 s⁻¹
A6G C34A	< 1e-05 s⁻¹	< 1e-05 s⁻¹	< 1e-05 s⁻¹	< 1e-05 s⁻¹	< 1e-05 s⁻¹
A33G U65C C71A	< 1e-05 s⁻¹	< 1e-05 s⁻¹			
A14G U45G A64U	< 1e-05 s⁻¹				
G35A C67A	< 1e-05 s⁻¹	< 1e-05 s⁻¹	< 1e-05 s⁻¹	< 1e-05 s⁻¹	
G37U C58U G63A	< 1e-05 s⁻¹				
A14C C34U G60U	< 1e-05 s⁻¹	< 1e-05 s⁻¹		< 1e-05 s⁻¹	< 1e-05 s⁻¹
G32C U69G	0.000189 ± 3.1e-05 s⁻¹	0.000383 ± 8e-05 s⁻¹		0.000111 ± 2.5e-05 s⁻¹	9.57e-05 ± 1.1e-05 s⁻¹
A33U G40A G62C	< 1e-05 s⁻¹				
C8A U45G U69C C71G	< 1e-05 s⁻¹				
U56C C61U	< 1e-05 s⁻¹	< 1e-05 s⁻¹	< 1e-05 s⁻¹	< 1e-05 s⁻¹	< 1e-05 s⁻¹
U30C A39C G41U	< 1e-05 s⁻¹				< 1e-05 s⁻¹
A14C U49A G63A	< 1e-05 s⁻¹				
G32C G40A A53C	< 1e-05 s⁻¹			< 1e-05 s⁻¹	< 1e-05 s⁻¹
G7U C19A A36G A39C	< 1e-05 s⁻¹				< 1e-05 s⁻¹

Variant	self-cleavage kobs at 40 uM GlcN6P (glucosamine-6-phosphate [1])	self-cleavage kobs at 640 uM GlcN6P (glucosamine-6-phosphate [2])	self-cleavage kobs at 160 uM GlcN6P (glucosamine-6-phosphate [3])	self-cleavage kobs at 2500 uM GlcN6P (glucosamine-6-phosphate [4])	self-cleavage kobs at 10000 uM GlcN6P (glucosamine-6-phosphate [5])
A14U C70U	0.000285 ± 2.5e-05 s⁻¹	0.00104 ± 0.00018 s⁻¹	0.000441 ± 6.1e-05 s⁻¹	0.00724 ± 0.0015 s⁻¹	
C16A G51U A64C	< 1e-05 s⁻¹			< 1e-05 s⁻¹	< 1e-05 s⁻¹
G43A U69G	< 1e-05 s⁻¹	< 1e-05 s⁻¹			< 1e-05 s⁻¹
A36G C61A	< 1e-05 s⁻¹	< 1e-05 s⁻¹			< 1e-05 s⁻¹
G40C U54C	8.26e-05 ± 2.6e-05 s⁻¹			0.00131 ± 0.00028 s⁻¹	0.00203 ± 0.00044 s⁻¹
A14U G40A U56G	0.000117 ± 2.9e-05 s⁻¹				0.00163 ± 0.00045 s⁻¹
G7A A14U C58A C68G	0.000142 ± 4e-05 s⁻¹	0.00047 ± 0.00023 s⁻¹			0.00011 ± 2.5e-05 s⁻¹
G7C A64G	< 1e-05 s⁻¹	< 1e-05 s⁻¹	< 1e-05 s⁻¹	< 1e-05 s⁻¹	
C16G G40U C58G	< 1e-05 s⁻¹			< 1e-05 s⁻¹	
G13U G37A	< 1e-05 s⁻¹		< 1e-05 s⁻¹		6.96e-05 ± 8.5e-06 s⁻¹
A6G A15U C16G A53G C61G G63A	< 1e-05 s⁻¹	< 1e-05 s⁻¹	< 1e-05 s⁻¹	< 1e-05 s⁻¹	
A36C U47C	< 1e-05 s⁻¹	< 1e-05 s⁻¹		< 1e-05 s⁻¹	
A6C A14U G41U C70U	< 1e-05 s⁻¹				
G37U G40A	< 1e-05 s⁻¹	< 1e-05 s⁻¹	< 1e-05 s⁻¹	< 1e-05 s⁻¹	< 1e-05 s⁻¹
U46A C58U	< 1e-05 s⁻¹	< 1e-05 s⁻¹	< 1e-05 s⁻¹		
G29U G40A U45A	5.2e-05 ± 1.6e-05 s⁻¹	0.00011 ± 2.8e-05 s⁻¹		0.000444 ± 8.6e-05 s⁻¹	0.000439 ± 0.00011 s⁻¹
C8U A39U U45G C70G	< 1e-05 s⁻¹				< 1e-05 s⁻¹
A15U G43A G44U G62A	< 1e-05 s⁻¹				< 1e-05 s⁻¹
A14G U55C C70U	6.64e-05 ± 2.1e-05 s⁻¹				0.00236 ± 0.00041 s⁻¹
C70A	0.000267 ± 7.7e-05 s⁻¹	0.00093 ± 0.00021 s⁻¹	0.000416 ± 0.00014 s⁻¹	0.000583 ± 4.1e-05 s⁻¹	0.00384 ± 0.0011 s⁻¹
A33C G43A G44A	< 1e-05 s⁻¹				< 1e-05 s⁻¹
C8U G29C	< 1e-05 s⁻¹	< 1e-05 s⁻¹	< 1e-05 s⁻¹	< 1e-05 s⁻¹	< 1e-05 s⁻¹
A36U U45A C71G	< 1e-05 s⁻¹				
